According to paper PMC3504009 (PLoS ONE, 2012):

Molecular target: T1, YscUCC, C-terminal polypeptide of the cleaved cytosolic domain YscUC of YscU, wild type (Y. pseudotuberculosis, UniProt P69987 264-354)
T1 sequence: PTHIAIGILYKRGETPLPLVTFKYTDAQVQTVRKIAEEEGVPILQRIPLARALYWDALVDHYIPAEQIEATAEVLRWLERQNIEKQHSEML
Experiment: circular dichroism, dissociation kinetics
Conditions: both partners purified

B1: YscUCN, N-terminal cytoplasmic polypeptide of the cleaved cytosolic domain YscUC of YscU (domain or fragment)
chain: IKELKMSKDEIKREYKEMEGSPEIKSKRRQFHQEIQSRNMRENVKRSSVVVAN
binding result: binds
